Test results taken from patent publication US11918683B2, “Treatment of immune diseases by administration of antigen-specific formulations” (Allero Therapeutics B.V., priority 2017, dated 2024).
Ends that are not written are not given here.

Experiments:
[1] = tested on: NOD AB° DQ8 transgenic mice; experiment: Antigen-specific DTH response (ear swelling) after SLIT; assay type: in vivo; settings: 10 μg DQ8d in ear, 24 hours, compared to PBS
Foxp3 = Foxp3 expression within CD4+ T cell population by FACS; assay type: cell-based, NOD AB° DQ8 transgenic mice; settings: spleen
Description: Flow cytometric analysis: spleens and cervical lymph node tissue of SLIT treated mice were isolated, prepared as described above and stained for CD4, CD25 and Foxp3. Intracellular staining was performed for Foxp3 according to the manufacturer's instructions (eBiosciences) and subsequently measured using flow cytometry on a Becton Dickinson FACSCaliburs. Cells were gated on CD4^+CD25^+ and CD4^+CD25^− subpopulations and within these populations Foxp3 histograms were used to determine Mean Fluorescence Intensity (MFI).
T-cell phenotyping: CD4 and CD25 antibodies were purchased from BD Biosciences, and APC anti-Foxp3 staining kits were purchased from eBiosciences. Anti-IL-10 neutralizing monoclonal antibody (1 μg/mL, clone JES052A5), TGF-β neutralizing monoclonal antibody (1 μg/mL, clone 1D11) and LAP (latency associated peptide) neutralizing antibodies (1 μg/mL, clone 27235) were obtained from R&D systems.

[2] = tested on: OVA- or Ovm-sensitized piglets; experiment: Piglet food allergy model, oromucosal PSF patch treatment; assay type: in vivo, Landrace-Yorkshire piglets; settings: oromucosal once weekly for 6 weeks
[3] = tested on: OVA- or HDM-sensitized mice; experiment: Sublingual immunotherapy (SLIT) mouse model; assay type: in vivo, BALB/cByJ mice; settings: sublingual 5 days a week for 8 weeks
Description: Antigen: naturally purified Der p1 and 2 in a 50:1 ratio was purchased from Citeq or intact, LPS-free OVA grade V protein (Sigma Aldrich) was used as antigen in all experiments. Animals: BALB/cByJ mice were purchased from Charles River Laboratories at an age of 6 to 8 weeks and housed in individually ventilated cages (IVC). Sensitization of mice: all mice received intraperinoneal injections on day 1 and 15 of 5 μg crude extract […]) or 25 μg OVA adsorbed to 2.25 mg Alum (Imject, Pierce) in 100 μL PBS. […] Hereafter, airway responsiveness was determined, and bronchoalveolar lavage fluid (BALF), lungs, and blood were collected and stored for analyses. Measurement of airway hyperreactivity to methacholine: airway hyperresponsiveness (AHR) was assessed by measuring airway resistance (R in cmH2O.s/mL) and lung compliance (C in mL/H2O) in response to intravenous administration of increasing doses of methacholine (Sigma-Aldrich). The AHR was expressed as the effective dose of methacholine required to induce a R of 3 cmH2O.s/mL (ED3). […] ELISA determined the concentrations of IL-5, IL-10, IL-13 and IFN-γ, according to the manufacturer's instructions (BD Pharmingen). […]

Molecule | DTH response (ear swelling) [1] | number of Foxp3 CD4+ T cells (Foxp3) | AHR [2] | AHR [3]
deaminated DQ8d peptide GAPVPYPDPLEPRQYPSGEGSFQPSQENPQA (also: deaminated (sites not given here)) [deaminated gliadin peptide antigen] | slight reduction | did not show a significant increase |  | 
Ovm: Ovm protein (ovomucoid) used as antigen (protein, UniProt P01005 25-210, looked up) Ovomucoid: AEVDCSRFPNATDKEGKDVLVCNKDLRPICGTDGVTYTNDCLLCAYSIEFGTNISKEHDGECKETVPMNCSSYANTTSEDGKVMVLCNRAFNPVCGTDGVTYDNECLLCAHKVEQGASVDKRHDGGCRKELAAVSVDCSEYPKPDCTAEDRPLCGSDNKTYGNKCNFCNAVVESNGTLTLSHFGKC |  |  | only a moderate effect | 
OVA: intact, LPS-free OVA grade V protein (ovalbumin) used as antigen (protein, UniProt P01012 2-386, looked up) Ovalbumin: GSIGAASMEFCFDVFKELKVHHANENIFYCPIAIMSALAMVYLGAKDSTRTQINKVVRFDKLPGFGDSIEAQCGTSVNVHSSLRDILNQITKPNDVYSFSLASRLYAEERYPILPEYLQCVKELYRGGLEPINFQTAADQARELINSWVESQTNGIIRNVLQPSSVDSQTAMVLVNAIVFKGLWEKAFKDEDTQAMPFRVTEQESKPVQMMYQIGLFRVASMASEKMKILELPFASGTMSMLVLLPDEVSGLEQLESIINFEKLTEWTSSNVMEERKIKVYLPRMKMEEKYNLTSVLMAMGITDVFSSSANLSGISSAESLKISQAVHAAHAEINEAGREVVGSAEAGVDAASVSEEFRADHPFLFCIKHIATNAVLFFGRCVSP |  |  | only a moderate effect | only a moderate effect
